Measurements as given in article PMC10786891, “Massively parallel profiling of RNA-targeting CRISPR-Cas13d”.
Where a chain is given by its changes, count along the chain named. In names and notes the source's numbering stands.

B1: target 1 insC 3' of 22,insU 3' of 5 (mixed)
RNA 1: CACCCGUGCAAAAAUGCAGGGGUCUAAAACUGAGCGGAUAACCUCUCUAUGG
RNA 2: GGGAAUGGAUCCACAUCUACGAAUUCGUACCCAUAGAGAGGUUAUCCGUCUCACCGAGAUCGGAAGAGCACACGU
B2: target 1 insC 3' of 20,insA 3' of 10 (mixed)
RNA 1: B1 RNA 1
RNA 2: B1 RNA 2 with C32A, A33C, U45A, C46U, G48C, U49G
B3: target 1 C6A,U11A (mixed)
RNA 1: B1 RNA 1
RNA 2: GGGAAUGGAUCCACAUCUACGAAUUCGUACCAUAGAGAGGAUAUCAGCUCACCGAGAUCGGAAGAGCACACGU
B4: target 1 insU 3' of 18,insU 3' of 9 (mixed)
RNA 1: B1 RNA 1
RNA 2: B1 RNA 2 with C32A, A33U, U34A, A35U, C46U, G48C, U49G
B5: target 1 insC 3' of 10,insU 3' of 6 (mixed)
RNA 1: B1 RNA 1
RNA 2: GGGAAUGGAUCCACAUCUACGAAUUCGUACCAUAGAGAGGUUCAUCCUGCUCACCGAGAUCGGAAGAGCACACGU
B6: target 1 insA 3' of 22,insC 3' of 17 (mixed)
RNA 1: B1 RNA 1
RNA 2: GGGAAUGGAUCCACAUCUACGAAUUCGUACACAUAGCAGAGGUUAUCCGCUCACCGAGAUCGGAAGAGCACACGU
B7: target 1 insU 3' of 22,insG 3' of 8 (mixed)
RNA 1: B1 RNA 1
RNA 2: B1 RNA 2 with C31U, C46G, G48C, U49G
B8: target 1 insU 3' of 14,insU 3' of 4 (mixed)
RNA 1: B1 RNA 1
RNA 2: B5 RNA 2 with G39U, U41G, C43U, U48G, G49C, C50U
B9: target 1 insC 3' of 9,insG 3' of 1 (mixed)
RNA 1: B1 RNA 1
RNA 2: B5 RNA 2 with C43A, A44C, U48G, G49C, C50U, U51C, C52A, A53G
B10: target 1 G13A,G15A (mixed)
RNA 1: B1 RNA 1
RNA 2: B3 RNA 2 with G37A, G39A, A41U, A46C
B11: target 1 insA 3' of 13,insU 3' of 1 (mixed)
RNA 1: B1 RNA 1
RNA 2: B5 RNA 2 with G40A, U41G, C43U, U48G, G49C, C50U, U51C, C52A, A53U
B12: target 1 A1C,G17A (mixed)
RNA 1: B1 RNA 1
RNA 2: B3 RNA 2 with G35A, A41U, A46C, A51C
B13: target 1 G17A (mixed)
RNA 1: B1 RNA 1
RNA 2: B3 RNA 2 with G35A, A41U, A46C
B14: target 1 insG 3' of 11,insG 3' of 11 (mixed)
RNA 1: B1 RNA 1
RNA 2: B5 RNA 2 with U42G, C43G, A44U, U45A, C46U, U48C
B15: target 1 C7U,G15U (mixed)
RNA 1: B1 RNA 1
RNA 2: B3 RNA 2 with G37U, A41U, C45U, A46C
B16: target 1 insC 3' of 22,insA 3' of 4 (mixed)
RNA 1: B1 RNA 1
RNA 2: B1 RNA 2 with U49C, C50A
B17: target 1 insG 3' of 8,insU 3' of 1 (mixed)
RNA 1: B1 RNA 1
RNA 2: B5 RNA 2 with C43A, A44U, U45G, U48G, G49C, C50U, U51C, C52A, A53U
B18: target 1 A9U,A16C (mixed)
RNA 1: B1 RNA 1
RNA 2: B3 RNA 2 with A36C, A41U, A43U, A46C
B19: target 1 insU 3' of 7,insU 3' of 4 (mixed)
RNA 1: B1 RNA 1
RNA 2: B5 RNA 2 with C43A, A44U, U45C, C46U, U48G, G49C, C50U
B20: target 1 insG 3' of 19,insA 3' of 3 (mixed)
RNA 1: B1 RNA 1
RNA 2: B1 RNA 2 with C32A, A33U, U34G, U49C, C50U, U51A
B21: target 1 C6G,U10C (mixed)
RNA 1: B1 RNA 1
RNA 2: B3 RNA 2 with A41U, U42C, A46G
B22: target 1 A1G,G17A (mixed)
RNA 1: B1 RNA 1
RNA 2: B3 RNA 2 with G35A, A41U, A46C, A51G
B23: target 1 del8,del19 (mixed)
RNA 1: B1 RNA 1
RNA 2: GGGAAUGGAUCCACAUCUACGAAUUCGUACCAAGAGAGGUUACCGCUCACCGAGAUCGGAAGAGCACACGU
B24: target 1 U8G,G17C (mixed)
RNA 1: B1 RNA 1
RNA 2: B3 RNA 2 with G35C, A41U, U44G, A46C
B25: target 1 A1U,G17A (mixed)
RNA 1: B1 RNA 1
RNA 2: B3 RNA 2 with G35A, A41U, A46C, A51U
B26: target 1 G17A,A18U (mixed)
RNA 1: B1 RNA 1
RNA 2: B3 RNA 2 with A34U, G35A, A41U, A46C
B27: target 1 del8,del14 (mixed)
RNA 1: B1 RNA 1
RNA 2: B23 RNA 2 with A33U, G34A, A35G, G36A, A37G
B28: target 1 insA 3' of 13,insG 3' of 1 (mixed)
RNA 1: B1 RNA 1
RNA 2: B5 RNA 2 with G40A, U41G, C43U, U48G, G49C, C50U, U51C, C52A, A53G
B29: target 1 insC 3' of 18,insG 3' of 4 (mixed)
RNA 1: B1 RNA 1
RNA 2: B1 RNA 2 with C32A, A33U, U34A, A35C, U49C, C50G
B30: target 1 G5U,C7U (mixed)
RNA 1: B1 RNA 1
RNA 2: B3 RNA 2 with A41U, C45U, A46C, G47U
B31: target 1 complement block 6-13 (mixed)
RNA 1: B1 RNA 1
RNA 2: B3 RNA 2 with G39C, G40C, U42A, A43U, U44A, C45G, A46G
B32: target 1 G5A,G12C (mixed)
RNA 1: B1 RNA 1
RNA 2: B3 RNA 2 with G40C, A41U, A46C, G47A
B33: target 1 insG 3' of 10,insA 3' of 8 (mixed)
RNA 1: B1 RNA 1
RNA 2: B5 RNA 2 with C43G, C46A, U48C
B34: target 1 insG 3' of 7,insA 3' of 5 (mixed)
RNA 1: B1 RNA 1
RNA 2: B5 RNA 2 with C43A, A44U, U45C, C46G, U48G, G49A

Target: T1, EsCas13d, nuclease-dead (Eubacterium siraeum, UniProt B0MS50, R295A;H300A;R849A;H854A)
T1 sequence: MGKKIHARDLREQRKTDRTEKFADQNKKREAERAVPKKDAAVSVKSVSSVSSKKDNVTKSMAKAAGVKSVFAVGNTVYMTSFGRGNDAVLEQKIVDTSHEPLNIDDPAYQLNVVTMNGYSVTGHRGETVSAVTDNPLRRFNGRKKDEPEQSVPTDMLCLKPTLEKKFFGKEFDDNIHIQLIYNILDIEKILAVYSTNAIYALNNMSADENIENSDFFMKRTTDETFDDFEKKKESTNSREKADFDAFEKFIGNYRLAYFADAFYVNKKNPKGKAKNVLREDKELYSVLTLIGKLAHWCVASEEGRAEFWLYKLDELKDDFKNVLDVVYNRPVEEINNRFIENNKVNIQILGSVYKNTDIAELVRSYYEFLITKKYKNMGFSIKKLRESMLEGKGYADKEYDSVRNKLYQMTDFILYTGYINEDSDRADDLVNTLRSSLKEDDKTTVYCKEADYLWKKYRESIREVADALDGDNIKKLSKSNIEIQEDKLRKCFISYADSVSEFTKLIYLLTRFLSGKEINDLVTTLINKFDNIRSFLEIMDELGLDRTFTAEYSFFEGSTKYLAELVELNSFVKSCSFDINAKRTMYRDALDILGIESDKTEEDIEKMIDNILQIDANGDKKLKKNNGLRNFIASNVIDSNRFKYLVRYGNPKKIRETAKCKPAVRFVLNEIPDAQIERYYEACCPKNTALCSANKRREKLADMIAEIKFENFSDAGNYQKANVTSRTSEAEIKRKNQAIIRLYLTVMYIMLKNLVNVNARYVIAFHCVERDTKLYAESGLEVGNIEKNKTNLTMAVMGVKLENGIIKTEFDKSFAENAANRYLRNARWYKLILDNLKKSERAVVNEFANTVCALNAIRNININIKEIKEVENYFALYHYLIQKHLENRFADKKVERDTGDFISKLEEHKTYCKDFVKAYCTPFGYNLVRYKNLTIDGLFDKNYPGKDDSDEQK
Assay: crRNA (strand 1, pre-loaded); Mg2+; 40 mM Tris-HCl pH 7.5, 150 mM NaCl, 6 mM MgCl2, 1 mM DTT, 0.1% Tween-20, 0.2 mg/ml BSA; 25 C; 10 min per concentration, then washed
Settings: tags: His6-TwinStrep-SUMO cleaved; N-terminal SNAP kept (SNAP-Surface 488); label: 3' end held by stalled T7 RNA polymerase

Row | Binder | Kd
1 | B1 | 24.3 ± 3.1 nM
2 | B2 | 10.1 ± 0.4 nM
3 | B3 | 28.1 ± 1.7 nM
4 | B4 | 49 ± 8 nM
5 | B5 | 46 ± 5 nM
6 | B6 | 47 ± 19 nM
7 | B7 | 49 ± 4 nM
8 | B8 | 63 ± 13 nM
9 | B9 | 12.2 ± 1.2 nM
10 | B10 | 10.3 ± 0.8 nM
11 | B11 | 3.62 ± 0.33 nM
12 | B12 | ~45 nM
13 | B13 | 27.4 ± 1.7 nM
14 | B14 | 86 ± 26 nM
15 | B15 | 13.1 ± 1 nM
16 | B16 | 15.9 ± 3.1 nM
17 | B17 | 12.6 ± 0.9 nM

Row | Binder | Kd
18 | B18 | 45 ± 6 nM
19 | B19 | 15.2 ± 0.6 nM
20 | B20 | 49 ± 5 nM
21 | B21 | 14.2 ± 0.4 nM
22 | B22 | 41 ± 8 nM
23 | B23 | 64 ± 7 nM
24 | B24 | 72 ± 15 nM
25 | B25 | 36 ± 10 nM
26 | B26 | 50 ± 12 nM
27 | B27 | 34.1 ± 2.7 nM
28 | B28 | 3.08 ± 0.21 nM
29 | B29 | 35.7 ± 2 nM
30 | B30 | 53 ± 6 nM
31 | B31 | 92 ± 15 nM
32 | B32 | 13.5 ± 0.5 nM
33 | B33 | 21.6 ± 1 nM
34 | B34 | 7.33 ± 0.33 nM
